Laboratory results from article PMC4867592, “Targeting multiple response regulators of Mycobacterium tuberculosis augments the host immune response to infection” (Scientific Reports, 2016).
Numbering of substitutions follows the chain as printed.

How the values were obtained:
Experiment in all cases: EMSA
RegX3 L201A L201A = biological target: T1, RegX3 L201A L201A (UniProt P9WGL9)
T1 sequence: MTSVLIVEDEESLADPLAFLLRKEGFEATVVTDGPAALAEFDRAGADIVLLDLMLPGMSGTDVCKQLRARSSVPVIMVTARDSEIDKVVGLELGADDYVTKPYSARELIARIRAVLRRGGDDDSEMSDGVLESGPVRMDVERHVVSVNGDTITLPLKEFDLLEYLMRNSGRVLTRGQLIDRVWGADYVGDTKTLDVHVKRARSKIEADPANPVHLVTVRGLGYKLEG

RegX3 R202A R202A = biological target: T2, RegX3 R202A R202A (UniProt P9WGL9)
T2 sequence: T1 sequence with A201L, R202A

RegX3 K204A K204A = biological target: T3, RegX3 K204A K204A (UniProt P9WGL9)
T3 sequence: T1 sequence with A201L, K204A

In the case of “ACCGGCTTGGGACCGGCACCGCGGTACTGTGTGCGTTCGGCACCGCGCTGCACCCGCGGTTCGGGCCGGATTCGTCCGCGCGGCACCGCCGTTCGGGCGC (double strand) [ppK1 promoter fragment]”, the binding (RegX3 L201A L201A) is reported as “no binding”, the binding (RegX3 R202A R202A) is reported as “binds” and the binding (RegX3 K204A K204A) is reported as “no binding”.
